Consider 17 sequences from the supplement of paper PMC12764529.

Data set [1] can be described thus: folding stability dG unfold from trypsin proteolysis; higher = more stable. An outline of the steps:
(§1)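 Designed mini-proteins with no cysteine and under 80 residues were kept only if AlphaFold2 dimer inter-PAE was above 15. In a PA-tagged cDNA display construct, they were digested with trypsin and chymotrypsin and then sequenced. K50 was inferred by Bayesian fitting of counts, and unfolding free energy was derived per protease or combined against a sequence-predicted unfolded-state K50 and a shared folded-state K50.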

A short description of data set [2]: folding stability dG unfold from chymotrypsin proteolysis; higher = more stable. Put shortly: as §1
The nature of data set [3]: folding stability dG unfold (combined trypsin and chymotrypsin); higher = more stable. An outline of the steps: as §1

± gives the half width of the 95% confidence interval.

Consider “SAGGSAKFKLEATPLEDGTLIIPIEIEVTVEKPFPDPNGIPKIKPVKKKFRFLIIKDGDEIKIFLGSAGGSA [r15_883_TrMRF]”, for which the “folding stability dG unfold” value in data set [1] came out at 1.59 ± 0.089 kcal/mol; in data set [2], 2.66 ± 0.097 kcal/mol; in data set [3] it was 2.31 ± 0.23 kcal/mol.
The corresponding values for “SAGGSAKIDIEVDPEDGYIRIKLEVQHNDEPVKATMWYPLPDDGMFIRIRFDMPNGKIEEIETIPPSAGGSA [r2_331_TrROS]” are 2.69 ± 0.14 kcal/mol, 4.07 ± 0.12 kcal/mol and 3.91 ± 0.27 kcal/mol.
As to “SAGGSAKILEEALEALKKAKPGEEVEIEIEIEVNGKKYRIKVKVTYDEETGKITIEIVEIEELPEESAGGSA [r15_724_TrROS_Hall]”, the “folding stability dG unfold” value was 3.23 ± 0.14 kcal/mol in data set [1], 4.11 ± 0.14 kcal/mol in data set [2] and 3.8 ± 0.14 kcal/mol in data set [3].
The corresponding values for “SAGGSAKITPGEEINFMFYNPENGQPFMVRIRIEKITVKRKPKDGKRKVEYKIKIEMSPGMKEITISAGGSA [r15_248_TrROS]” are 2.26 ± 0.15 kcal/mol, 3.32 ± 0.11 kcal/mol and 3.23 ± 0.3 kcal/mol.
For “SAGGSAKIVIKPDGTIEVEVNGKTFTFPPGAEIEIEEKDGELVLRIRLFNKDGKEVEEFEVTVRIESAGGSA [r15_424_TrROS_Hall]”, in that order: 4.36 ± 0.19 kcal/mol, 5.51 ± 0.18 kcal/mol and 5.48 ± 0.18 kcal/mol.
For “SAGGSAKKKEKKVEKKVITIEVEPGVKTPEEMLEAIRKLKEEYPDTKIIIKASDEQKEALKRLLKESAGGSA [r15_89_TrROS_Hall]”, in that order: 0.669 ± 0.16 kcal/mol, 0.879 ± 0.14 kcal/mol and 0.767 ± 0.3 kcal/mol.
In the case of “SAGGSAKKKEVKELTLVIKVKTEEEALKAAEELIRKLLPPDAEIVEVKVEKVKPGEVYITVKVRLKSAGGSA [r15_183_TrROS_Hall]”, the “folding stability dG unfold” value in data set [1] came out at 2.36 ± 0.12 kcal/mol; in data set [2] it was 3.99 ± 0.14 kcal/mol; in data set [3] it was 3.67 ± 0.18 kcal/mol.
For “SAGGSAKKKKGKKKKKIKKIKIKLKLPPGAEIVKIDKEKGVIYIRNKKTNKIYKIDLKTGKIVEIPSAGGSA [r15_452_TrROS_Hall]”, in that order: 1.86 ± 0.17 kcal/mol, 3.66 ± 0.26 kcal/mol and 3.27 ± 0.39 kcal/mol.
For “SAGGSAKKKKKKKKKKKKKKEKKEVVIVIKAKSKEEAEKAVKKLLEELQKKYNIPLPKNVKVIILPSAGGSA [r15_496_TrROS_Hall]”, the “folding stability dG unfold” value turned out to be 3.33 ± 0.11 kcal/mol in data set [1], 4.34 ± 0.24 kcal/mol in data set [2] and 3.65 ± 0.37 kcal/mol in data set [3].
The corresponding values for “SAGGSAKKKKKKKVKKVITIPVGGYKIEITYNKKTKKITVKVYKKNKNGKLLSEEEVKKLVKELLSSAGGSA [r15_735_TrROS_Hall]” are 1.73 ± 0.1 kcal/mol, 3.4 ± 0.2 kcal/mol and 2.58 ± 0.53 kcal/mol.
The corresponding values for “SAGGSAKKKKTLKITLIIKVKTKEEAEKLAEELAEKLKKLLPEGAKIKVKVTVNKETGYVTVEIELSAGGSA [r15_981_TrROS_Hall]” are 2.88 ± 0.16 kcal/mol, 3.64 ± 0.14 kcal/mol and 3.38 ± 0.15 kcal/mol.
For “SAGGSAKKPKPVKYNVVITLKDGKTITLTLPFGSLEKAKEFIEKNFPDAIVTYNPKTGNVTVYLPVSAGGSA [r15_313_TrMRF]”, in that order: 1.87 ± 0.035 kcal/mol, 3.543 ± 0.03 kcal/mol and 3.16 ± 0.12 kcal/mol.
Consider “SAGGSAKKTIKITIEVDGKTIEITKITVNENGEVTIEVKITNKNGKETKTIKITMTVEELKALLKSSAGGSA [r15_56_TrROS_Hall]”, for which the entries for the “folding stability dG unfold” value in data set [1], in data set [2] and in data set [3] were 1.63 ± 0.042 kcal/mol, 2.55 ± 0.081 kcal/mol and 2.18 ± 0.095 kcal/mol, respectively.
The corresponding values for “SAGGSAKKVIVIEVKPGEKITITINGKKVEIVEVKPEGETFLIRNKDTGEIYKITVVDGKVVIEKLSAGGSA [r15_235_TrROS_Hall]” are 2.43 ± 0.09 kcal/mol, 4.28 ± 0.076 kcal/mol and 3.74 ± 0.22 kcal/mol.
For “SAGGSAKKVRIEIERNADGTLRITVTLPDGTKKEITVDKPGMTLEEIAKKLGLPEGAEITEIERVPSAGGSA [r15_167_TrROS_Hall]”, in that order: 2.97 ± 0.067 kcal/mol, 2.71 ± 0.035 kcal/mol and 2.83 ± 0.075 kcal/mol.
On to “SAGGSAKKVVLLTIPPSANLPPNSKLVVKFPNGKEKTYKFNDKPVVILLVTDNNGNFSFGVSVEDKSAGGSA [r15_992_TrMRF]”, for which the “folding stability dG unfold” value in data set [1] was determined as 1.87 ± 0.063 kcal/mol; in data set [2], 3.44 ± 0.17 kcal/mol; in data set [3] it was 2.68 ± 0.3 kcal/mol.
With “SAGGSAKLIVADVSPLPDGGFAVNVTFVGENGEPVAVKPFYAGSPEELLAALKKFAEENGYEVVVASAGGSA [r15_242_TrMRF]”, the “folding stability dG unfold” value in data set [1] is 3.6 ± 0.12 kcal/mol; in data set [2], 4.57 ± 0.06 kcal/mol; in data set [3] it was 4.43 ± 0.11 kcal/mol.
